In article PMC2829124:

Substrate: CCCCCCCCCCCCCC(=O)SCCNC(=O)CCNC(=O)[C@H](O)C(C)(C)COP(=O)(O)OP(=O)(O)OC[C@H]1O[C@@H](n2cnc3c(N)ncnc32)[C@H](O)[C@@H]1OP(=O)(O)O
Test: purified protein
Details: fatty acyl-CoA binding site

B1: N-Myristoyltransferase (LdNMT) (Leishmania donovani) (protein)
chain: MSRNPSNSDAAHAFWSTQPVPQTEDETEKIVFAGPMDEPKTVADIPEEPYPIASTFEWWTPNMEAADDIHAIYELLRDNYVEDDDSMFRFNYSEEFLQWALCPPSYIPDWHVAVRRKADKKLLAFIAGVPVTLRMGTPKYMKVKAQEKGQEEEAAKYDAPRHICEINFLCVHKQLREKRLAPILIKEVTRRVNRTNVWQAVYTAGVLLPTPYASGQYFHRSLNPEKLVEIRFSGIPAQYQKFQNPMAMLKRNYQLPNAPKNSGLREMKPSDVPQVRRILMNYLDNFDVGPVFSDAEISHYLLPRDGVVFTYVVENDKKVTDFFSFYRIPSTVIGNSNYNILNAAYVHYYAATSMPLHQLILDLLIVAHSRGFDVCNMVEILDNRSFVEQLKFGAGDGHLRYYFYNWAYPKIKPSQVALVML
Km: 0.0175 ± 0.0029 µM
